Measured values as given in publication PMC7618050, “Structure of the Bacteriophage PhiKZ non-virion RNA Polymerase transcribing from its promoter p119L”.

Biological target: PhiKZ nvRNAP GP55 (beta'-like);PhiKZ nvRNAP GP74 (beta'-like);PhiKZ nvRNAP GP71-73 (beta-like);PhiKZ nvRNAP … (Pseudomonas phage phiKZ;Pseudomonas …, UniProt Q8SDA7;Q8SD88;PDB:8QUE_2;Q8SD39;Q8SD94 1-420;1-677;1-700;1-543;1-521, ||||)
Experiment: cryo-EM structure (3.3 A); 10 mM MgCl2; 1 mM ATP, CTP, GTP, no UTP; Zn2+ in GP55; 40 mM Tris-Cl pH 8.0, 10 mM MgCl2, 5 mM DTT, 1 mM ATP/CTP/GTP, 30 min at 37 C, nvRNAP 0.1 mg/mL with scaffold 1:1; native PAGE 4-20% TGX at 4 C
Details: protein: recombinant;recombinant;recombinant;recombinant;recombinant; tags: ;;;;; copies: 1;1;1;1;1; label: Cy5 at 5' end of RNA (printed Cy5-GUAGA); non-template/template DNA with mismatched bubble; RNA hybrid with template (6 bp resolved)

B1: p119L RNA/DNA template with RNA extended by 3 nt (mixed)
DNA 1: AGTAATTTTAGTGAATGTATTTGCTATATTGCTATCCTAACAGTTCCCAAAAGCCTAAAGTTACAATATAGGTAC
DNA 2: GTACCTATATTGTAACTTTAGGCTTTTGGGAACTGTCTACATAGCAATATAGCAAATACATTCACTAAAATTACT
RNA: GUAGACAG
B1: binds.
